The values that follow come from publication PMC3561948.

“And” between values parts separate entries of the source, which are not always exact repeats. Identical values can stand only once.

Data set [1] addresses N130 Mos1 (the N-terminal 130 amino acids of Mos1 transposase, DNA-binding domain) (Drosophila mauritiana). The data set is described as follows: SEC-MALS.
Data set [2] addresses Mos1 transposase (containing the solubilizing mutation T216A), hydrogenated (Drosophila mauritiana). The data set is described as follows: SAXS + SANS.
For data set [3] the target is unchanged. The data set is described as follows: […], room temperature, 20 mM Tris pH 7.5, 0.3 M KCl, 1 mM DTT.
Data set [4] shares this target. The data set is described as follows: SEC-MALS.
Data set [5] has the same target. Briefly: SAXS + SANS. The source holds these as a separate data set.
Data set [6] concerns the target T1, H-Mos1 transposase (UniProt Q7JQ07 1-345, T216A).
T1 sequence: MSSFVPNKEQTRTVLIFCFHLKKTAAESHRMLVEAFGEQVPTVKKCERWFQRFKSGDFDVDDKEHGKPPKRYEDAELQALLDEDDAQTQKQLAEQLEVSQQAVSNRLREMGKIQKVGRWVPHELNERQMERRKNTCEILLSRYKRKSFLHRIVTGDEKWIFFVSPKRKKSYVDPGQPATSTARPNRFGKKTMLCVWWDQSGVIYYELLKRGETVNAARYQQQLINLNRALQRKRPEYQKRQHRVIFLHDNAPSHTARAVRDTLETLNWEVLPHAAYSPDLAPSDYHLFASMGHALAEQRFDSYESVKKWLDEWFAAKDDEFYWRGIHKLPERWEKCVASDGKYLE

Data set [7] addresses T2, D-Mos1 transposase (UniProt Q7JQ07 1-345, T216A).
T2 sequence: T1 sequence
Briefly: SANS contrast variation.

For the molecule “N130 Mos1 (the N-terminal 130 amino acids of Mos1 transposase, DNA-binding domain) (domain or fragment)”, in data set [1], the stoichiometry N was 2 and 4.
Take “Mos1 transposase (containing the solubilizing mutation T216A), hydrogenated (enzyme)”: the stoichiometry N in data set [2], in data set [3], in data set [4] and in data set [5] was 2 throughout.

B1: 50-mer IR DNA (SEC2 duplex) (dsDNA)
DNA 1: TTTAAAAAAAACGACATTTCATACTTGTACACCTGATAGTTTCTATATTC
DNA 2: GAATATAGAAACTATCAGGTGTACAAGTATGAAATGTCGTTTTTTTTAAA
With B1, the binding result in data set [6] and in data set [7] was “binds” each time.
